Results on two molecules are retold here after PMC5922973, “Topoisomerase VI senses and exploits both DNA crossings and bends to facilitate strand passage” (eLife, 2018).

Substitutions are numbered along the chain they refer to.

In general, Kd refers to the free concentration of one partner at which half of the binding sites on the other are occupied at equilibrium, for simple one-to-one binding.

In one data set the target is T1, topo VI KGRR-EEE (Methanosarcina mazei, UniProt Q8PUB7;Q8PUB8 1-369;1-621, K186E;R188E;R189E).
T1 sequence 1: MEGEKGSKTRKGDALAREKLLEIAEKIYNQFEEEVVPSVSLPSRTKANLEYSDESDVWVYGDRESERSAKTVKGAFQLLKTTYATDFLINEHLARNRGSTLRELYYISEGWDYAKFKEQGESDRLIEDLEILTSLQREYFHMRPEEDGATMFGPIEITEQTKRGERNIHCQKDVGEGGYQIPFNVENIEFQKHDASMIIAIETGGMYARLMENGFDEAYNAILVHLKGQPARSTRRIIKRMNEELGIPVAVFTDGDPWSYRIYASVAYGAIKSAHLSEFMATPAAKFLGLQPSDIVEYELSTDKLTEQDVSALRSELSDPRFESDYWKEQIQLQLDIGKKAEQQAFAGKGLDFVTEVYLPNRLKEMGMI
T1 sequence 2: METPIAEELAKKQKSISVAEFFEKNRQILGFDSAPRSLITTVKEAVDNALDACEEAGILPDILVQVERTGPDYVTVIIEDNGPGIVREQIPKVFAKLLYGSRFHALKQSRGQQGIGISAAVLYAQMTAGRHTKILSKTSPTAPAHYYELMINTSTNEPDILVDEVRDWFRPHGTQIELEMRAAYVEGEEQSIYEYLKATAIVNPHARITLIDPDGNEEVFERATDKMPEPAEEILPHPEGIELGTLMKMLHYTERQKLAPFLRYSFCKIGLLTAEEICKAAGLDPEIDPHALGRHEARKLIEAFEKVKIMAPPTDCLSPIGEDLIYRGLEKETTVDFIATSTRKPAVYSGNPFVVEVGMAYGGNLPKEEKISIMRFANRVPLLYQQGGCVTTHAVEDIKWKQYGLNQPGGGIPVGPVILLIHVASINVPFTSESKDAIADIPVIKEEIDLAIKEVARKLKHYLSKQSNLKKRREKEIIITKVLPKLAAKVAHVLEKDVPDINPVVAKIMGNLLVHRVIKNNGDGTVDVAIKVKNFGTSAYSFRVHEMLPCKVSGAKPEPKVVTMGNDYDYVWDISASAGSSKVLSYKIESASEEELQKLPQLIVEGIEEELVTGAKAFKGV
Briefly: fluorescence anisotropy; 10 mM Mg2+; ambiguous, poorly defined dFAmax; FA: 20 nM probe, 50 mM K-glutamate, 20 mM HEPES-KOH pH 7.5, 10 mM MgCl2, 5% glycerol, 1 mM TCEP, 0.1 mg/mL BSA; incubated on ice, read at ambient temperature; competition with 100 nM enzyme. The following applies: protein: recombinant; tags: N-terminal His6-TEV on Top6B, removed; chain copies: 2;2; label: 5'-FAM on S1; four-way Holliday junction, stacked-X, two GAAA-capped arms. For orientation: Fluorescence polarisation rises when a labelled molecule tumbles more slowly, as on binding a larger partner.

In a further data set the target is T2, topo VI KGRR-AAA (Methanosarcina mazei, UniProt Q8PUB7;Q8PUB8 1-369;1-621, K186A;R188A;R189A).
T2 sequence 1: T1 sequence 1
T2 sequence 2: T1 sequence 2 with E186A, E188A, E189A
The data set is described as above. To be noted: protein: recombinant; tags: N-terminal His6-TEV on Top6B, removed; chain copies: 2;2; label: 5'-FAM on S1; four-way Holliday junction, stacked-X, two GAAA-capped arms.

The target in a further data set is T3, topo VI H2TH-EEE (Methanosarcina mazei, UniProt Q8PUB7;Q8PUB8 1-369;1-621, R263E;K268E;K308E).
T3 sequence 1: T1 sequence 1
T3 sequence 2: T1 sequence 2 with E186K, E188R, E189R, R263E, K268E, K308E
As to the kind of experiment: fluorescence anisotropy; Hill h 1.3; FA: 20 nM probe, 50 mM K-glutamate, 20 mM HEPES-KOH pH 7.5, 10 mM MgCl2, 5% glycerol, 1 mM TCEP, 0.1 mg/mL BSA; incubated on ice, read at ambient temperature; competition with 100 nM enzyme. To be noted: protein: recombinant; tags: N-terminal His6-TEV on Top6B, removed; chain copies: 2;2; label: 5'-FAM strand 1; blunt.

B1: 16 x 20 bp stacked junction (structured_DNA)
DNA 1: CGAATACTCAGCTCAACCGAAAGGTTGAGCCTTCGCTCGAAAGAGCGAAGTACTCTTCCG
DNA 2: CGGAAGAGTATGAGTATTCG
On to B1, for which the values for the Kd with topo VI KGRR-EEE and with topo VI KGRR-AAA were roughly 1460 nM and roughly 758 nM, respectively.

B2: 30 bp duplex (dsDNA)
DNA 1: CAAAAAGGAAGAGTATGAGTATTCAACATC
DNA 2: GATGTTGAATACTCATACTCTTCCTTTTTG
As to B2, the Kd in the data set with topo VI H2TH-EEE came out at 94 ± 5 nM.
